# B1: Vangl2 in COS-7 cells (receptor)
# chain: MDTESQYSGYSYKSGHSRSSRKHRDRRDRHRSKSRDGGRGDKSVTIQAPGEPLLDNESTRGDERDDNWGETTTVVTGTSEHSISHDDLTRIAKDMEDSVPLDCSRHLGVAAGATLALLSFLTPLAFLLLPPLLWREELEPCGTACEGLFISVAFKLLILLLGSWALFFRRPKASLPRVFVLRALLMVLVFLLVVSYWLFYGVRILDARERSYQGVVQFAVSLVDALLFVHYLAVVLLELRQLQPQFTLKVVRSTDGASRFYNVGHLSIQRVAVWILEKYYHDFPVYNPALLNLPKSVLAKKVSGFKVYSLGEENSTNNSTGQSRAVIAAAARRRDNSHNEYYYEEAEHERRVRKRRARLVVAVEEAFTHIKRLQEEEQKNPREVMDPREAAQAIFASMARAMQKYLRTTKQQPYHTMESILQHLEFCITHDMTPKAFLERYLAAGPTIQYHKERWLAKQWTLVSEEPVTNGLKDGIVFLLKRQDFSLVVSTKKVPFFKLSEEFVDPKSHKFVMRLQSETSV
# notes: Vangl2 immunoprecipitated with 2G4 mAb from COS-7 cells
# Experiments:
# [1] = molecular target: GFP-p62 with deletion of a region containing the LIR domain (256-370) (Homo sapiens, UniProt P42212 1-238 = GFP); assay: immunoprecipitation with 2G4 mAb, COS-7 cells
# Vangl2 in COS-7 cells = molecular target: B1; assay: immunoprecipitation with 2G4 mAb, COS-7 cells
Binder,binding result [1],binding result (Vangl2 in COS-7 cells)
B1,no binding,–
"EGFP-tagged p62 (1-122), PB1 domain alone (other, not shown: EGFP tag) MASLTVKAYLLGKEDAAREIRRFSFCCSPEPEAEAEAAAGPGPCERLLSRVAALFPALRPGGFQAHYRDEDGDLVAFSSDEELTMAMSYVKDDIFRIYIKEKKECRRDHRPPCAQEAPRNMV",–,no binding

# — US20160032005A1 (INSERM INSTITUT NATIONAL DE LA SANTE ET DE LA RECHERCHE …, published 2016)
